In the RNAGym collection of RNA variant scans (doi:10.1073/pnas.2313332121):

B1: TPR t1 (parent)
chain: GACCAAUCUGCCCUCAGAGCUCGAGAACAUCUUCGGAUGCAGAGGAGGCAGGCUUCGGUGGCGCGAUAGCGCCAACGUCCUCAACCUCCAAUGCAUCCCACCACAUGAUGAUGCCUGAAGAGCCUUGGUUUUUUG

Variants of: B1
Experiment: polymerase ribozyme fitness, log enrichment relative to wild type (log ratio); higher = more active; in vitro selection for triplet polymerase activity
Summary of the method: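 PCR was used to build mutant libraries for each subunit of a heterodimeric triplet polymerase ribozyme, which were then transcribed. A single in vitro selection round, in triplicate, used a frozen incubation at −7 °C and recovered extended constructs by gel excision, streptavidin beads and RT-PCR. Fitness is the logarithm of genotype enrichment relative to wild-type enrichment, averaged over replicates with inverse-variance weights. The logarithm is base 2, and after Illumina sequencing only genotypes with ≥10 input reads and ≥1 read per output were kept.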

| Variant | polymerase ribozyme fitness (log ratio) |
| --- | --- |
| C12U A66U U78A U87C | -0.338 |
| C64G A121G | -4.54 |
| C3A U106G G113U | -6.02 |
| C28U G36A G48A | -3.89 |
| C8G G39A C79A C82A C85A C114U | -4.81 |
| C13U A24G C70A C73A C104U A111U | -6.33 |
| C28G C72U | -3.07 |
| A16U G117U C123A | -4.24 |
| C49U G60C G127A | -2.38 |
| C49U G135U | -1.61 |
| G42U U92A | -2.25 |
| C13U G47U C88U A90G U106G | -2.13 |
| G48U C49A C73A C115U U133C | -1.19 |
| C56U U67C | -4.67 |
| G17A C56A G93U | -4.99 |
| C82A C115G U130G | -1.11 |
| C53A G63U C82A A83C U96C | -3.55 |
| G10U C13A A41C G71A C85U | -3.61 |
| A6U A46U C72A U96A G120A G128A | -2.92 |
| A5C C72U | -1.39 |
| A6U G63A | -0.932 |
| C56G C79A | -1.17 |
| U7G C70U C86U U92A | -3.6 |
| C13A C72U U78A | -2.1 |

| Variant | polymerase ribozyme fitness (log ratio) |
| --- | --- |
| G48A C101U G117C U129C | -6.15 |
| C49A G52C C72A U96C | -0.937 |
| C20U A50U A83C | -5.22 |
| C82G A91C C115G | -2.49 |
| C12G C15A A41G G110A | -4.25 |
| C8A G120C | 1.71 |
| C40A G71U C115G C123G | -5.05 |
| C89G G122A | -3.38 |
| G71A C88A | -0.898 |
| G10A A41U | -0.89 |
| C3U C8U G61C G120A | 0.504 |
| C15G G36A A100C C124G | -3.29 |
| U92G G120C | -1.74 |
| G45C G48U G60A G61A A83C | -3.56 |
| U54G U87C C115G | -1.72 |
| C15A U87G A91C U112C G128C G135U | -5.85 |
| C40G G58A G107U U112A G122U | -5.89 |
| A43U U112G | -1.93 |
| C49U U106A U116G | -4.54 |
| C15A A37U C76U | -2.8 |
| C13G G47A G63U U96G | -3.63 |
| C12G C40U G47C C79U C82G C123A U130C | -2.93 |
| C3U A37C G122A | -2.49 |
| C3A G52A C70U C104A C124G | -2.12 |

| Variant | polymerase ribozyme fitness (log ratio) |
| --- | --- |
| A37C C53U | -0.73 |
| U21G C40U G47U G63U C98A G120C | -7.2 |
| C8G C20U | -1.02 |
| C28U C73U | -1.11 |
| C15U U96C U129A | -2.88 |
| U9A C12A C88U G127A | -2.52 |
| C86G U133A | -0.824 |
| C20U G52A G60A U96A | -3.48 |
| C40U C82U A84G G107U | -6.74 |
| G35U G120U | -5.06 |
| A27U U116G | -5.63 |
| A41G C49G U55A C73U A111C | -2.46 |
| A18G C20U A29U U32G C53A C97U | -2.71 |
| A6U G51C C56U | -2.91 |
| G61U G63U | -4.98 |
| G48A G61A A103C C104U | -5.34 |
| A90C G128C | -3.68 |
| C82G G117U C123G C124U | -1.39 |
| C20A G60U U92C A121C | -2.4 |
| C13U A90U G117C | -3.61 |
| C72U U87G | -1.61 |
| G36U U59A G93C G120C | -0.759 |
| U96A C102A | -3.43 |
| A18C A111U | -5.16 |

| Variant | polymerase ribozyme fitness (log ratio) |
| --- | --- |
| U54G C72G U129A | -2.34 |
| U7A C11A G117A | -2.2 |
| C73U C123G C124G | 2.14 |
| A2U A43C U59A | -5.8 |
| U9C C12A U21A C80A U87A G93U A121U U126G | -5.57 |
| G36U U125A | -1.4 |
| C56U A83C | 1.56 |
| C8G C15G C76G | -1.01 |
| A16U C82G U87A | -3.81 |
| A18U G36U | -3.48 |
| A27C U78C | -3.31 |
| A26C G36A G61A | -5.9 |
| C13U G39A A91G C123A | 0.557 |
| C34A G39U C98A | -3.78 |
| G36C A37G G60C A121U | 0.419 |
| C72U C80A | -5.24 |
| U14G G52A G93A | -3.09 |
| C62G U78C C79G A111G | -3.51 |
| C64U C115A | -0.337 |
| U21A A50U G61U U130A | -1.97 |
| A43G C72U | -0.99 |
| C99A A103C C104A | -4.54 |
| G60U A103G U112G | -6.67 |
| C20U U78A C85U | -2.54 |

| Variant | polymerase ribozyme fitness (log ratio) |
| --- | --- |
| C72G U129C U130A | -1.89 |
| G39A A118U | 0.354 |
| A75G C123U U125G U126A | 0.149 |
| C13U G23A A26G G61A C79U U106C | -4.2 |
| A2C G39C G69U U112C | -0.882 |
| G42U U92A A118U | -2.03 |
| A5U A43G G44A G52C C124U G128U | -4.6 |
| C73A U92A C104U | -2.28 |
| U54C C88U C94A C101U | -0.155 |
| A50U G110A | -2.67 |
| G36A G61C G93C G110A | -6.04 |
| C40G C56A C86U | -1.71 |
| C4U C22U | -4.42 |
| C13U G61C C101A | -2.82 |
| C28U C40A G71U U112C U126A | -3.58 |
| C72U U109G | -4.62 |
| A26C C53U C86U U112A | -5.9 |
| C11A G63C | -1.78 |
| U32A C34A C64U C86G C114A U133C | -5.96 |
| C12A G110U | -1.4 |
| G42A C72A C123A | -1.85 |
| U32A C49G C123U | -4.37 |
| A24G C86G C99U C114G | -7.76 |
| G19U U21A C49A C82A G113C | -4.41 |

| Variant | polymerase ribozyme fitness (log ratio) |
| --- | --- |
| C8U C11U | -0.675 |
| C40U G47C G58A G117A | -4.37 |
| C13G G69A C124A G128A | -4.44 |
| A6U C12A | 0.811 |
| U9A C31G G61U A83C G107C | -1.25 |
| C72U U78C U81A A83G | -1.17 |
| C53G U92C | -1.3 |
| A6U C22G A41C G71U | -3.47 |
| C28G A29U C114G G127C | -5.87 |
| G63A A111G | -0.659 |
| U78A C85U U112A | 0.505 |
| C12G A26U G45U U106A G127U | -4.14 |
| G25C G47A A103U C115G | -7.4 |
| G10C G39A C76U A84U U87A | -2.28 |
| C89A U125A | -1.17 |
| A41U G58C C89G | -2.91 |
| A18C G48U C56U A84G | -4.19 |
| C3A C15G C72G G117C A119U | -0.76 |
| A2U G110A | -3.63 |
| C49G G113U | -2.52 |
| G47U U54G C104U | -1.47 |
| G42C U55A G113U G120U C123U U125A | -3.47 |
| C53G C94U | -0.473 |
| U54A C64U C72U | 0.146 |

| Variant | polymerase ribozyme fitness (log ratio) |
| --- | --- |
| C20U U92A | -4.08 |
| C8U G71A C98U G117U U130C | -4.47 |
| C13G C64U A95G U112C C124U | 0.563 |
| G42C G48C U55C | -1.95 |
| U7C U14A A46U C64U | -2.69 |
| C85U U92C G127U G128A | -6.04 |
| A37G A43U G44U C72U U87C C104U U129G | -2.31 |
| U7G C12A G36U G77U | -0.735 |
| C8A G51U | -3.89 |
| C56A U81A C102A | -3.37 |
| C13A A50C G52U G93C | -4.43 |
| U7A C73G C80G | -6.07 |
| C22U G69U C82U C124G U126A | -0.7 |
| C73A G110A G120A | -1.61 |
| C12G G107U | -5.64 |
| C73G G120U | -0.78 |
| C3U A74U C101U G113A C123G | -1.18 |
| A41C U55G U59C G93C | -2.33 |
| A18C U38A C115A U116G C123U U126A | -4.52 |
| A83C G113A | -1.32 |
| A41U C89U U116A | -4.32 |
| G63A U129A | -1.64 |
| U7A C8G G45A | 0.548 |
